Data on 21 sequences can be found in a protein production outcome set (Wang et al. 2014).

This data set is described as follows: label from the status in PepcDB records.
For the sequence “MPISAHYGLTVLIWGLTWTAIRLQVESASVDLAVFYRFVMASVVALAVLAVTRRLSRLTLGQHGWLFLQGLTLYSVNFLLIYRAAESMTSGLLAVVFSLAALFNAFNGWLWLRTRPTARLYPAVALGVTGVALLFWHDLQLGNATGASILFAVAGTFWFSMGNLVSVKVKAAGVPLFTANAWAMVYGALILGLWCLIQGVEWMLPATSVFWGATVFLAVPGSIVAFYCYITVIQVLGADKAGYAAVLFPVVALSVSTWLEGFEWTTPAMLGALLAILGNYVLFRPGKRQSVSATSVPEQRT”, the protein production result is “failed”.

With “MTNILILMEREIIKILSVVEFHPLILAFHLGLMLAGVSLLSYSLFLILVKKVDIMLPLVISFMAYLTSLILLILILLLETYRFLIFDGRILVKNSLLTRNEFKFSLRDKNLIIGFYDKASLGKFAIIYGDRLLFKFLTQQKNIRLIKNFVVKSGYRLGGTYKICRVCGSINEENAEYCDFCGSREVSPYDLYWID”, the protein production entry is on record as “failed”.

With “MVADKSKKSKIEEKGEEENLEQIDAELVLSIEKLQEIQDDLEKINEKASDEVLEVEQKYNVIRKPVYDKRNEVIQSIPGFWMTAFLSHPALGDLLTEEDQKIFKYLNSLEVEDAKDVKSGYSITFHFTSNPFFEDAKLTKTFTFLEEGTTKITATPIKWKEGKGLPNGVNHDDKKGNKRALPEESFFTWFTDAQHKEDAGDEIHDEVADIIKEDLWSNPLTYFNNDADEEDFDGDDDGDEEGEEDDDDEEEEDGEE”, the protein production result is reported as “failed”.

Regarding “MRYSLFKNYLPKEEVPEIRKELIKLALPAMGENVLQMLFGMADTAFLGHYSWKAMSGVGLSNQVFWVVQVVLIAASMGATVTIANAIGAGNRKAVRSLAWNSVFLAIFTGVILTALTPLSDVLINIFPNLEGEIESSAKEYLKVILSGSMGFSIMAVFSAMLRGAGDTRTPMIVTGLTNFLNIFLDYAMIFGKFGFPEMGVRGAAVATILSRFVGAGILTYVIFKREEFQLRKGLVPPKWSSQKEILRVGFPTAIENFVFSTGVLMFANILLIAGAEAYAGHRIGINVESLSFMPAFGISVAITTLVGRYNGMGNKEHVLGVIRQGWILSLLFQVTVGIIIFLFPEPLIRIFTSDPQIIEISKLPVKIIGLFQFFLAIDSTMNGALRGTGNTLPPMIITFISIWTARLPVAFVMVKYFQLGLLGAWIGMIADIIFRSTLKLLFFLSGKWEKRAVLTRERVKELG”, the protein production result is “failed”.

Regarding “MCVRHDAGHGCLRAREGRRRPSMAPPCRKKINKPVLVRVDEFCSAAVQAGNPIVPSTLETTHWATRRRPKEAGMASKMFKTVGRVAAGVAALSIAAAATTASADSRHHRHKRDKGGDVAAAAITAGVIGLVIGAAIADDGHRDDRYYDRRYAPPPPPPPTRYGHGYGYGYDYDYAPRPYYGDRECWTTREYNRRSGSYYERTVCR”, the protein production entry is “failed”.

“MENIPFLRASTVPVIEYLDELKEIDASHIYTNYGPINQRFEQTIMSGFFQNRGAVTTVANATLGLMAAIQLKKRKKGKYALMPSFTFPATPLAAIWCGLEPYFIDISIDDWYMDKTVLWDKIEELKEEVAIVVPYATFGSWMNLEEYEELEKKGVPVVVDAAPGFGLMNGGMHYGQDFSGMIIYSFHATKPFGIGEGGLIYSKNEEDIQRIKRMGNFGFDTNRECTMMGFNCKMSEYAAAIGIATMKKWDDKLKERTRISEWYKQLLQSNGLMKKGWQLQKTEAVIQQFMPILCPEEVRNKQVIEDLKKQKIEARLYFSPSCHQQVLFRNYKSTDLTRTNKIAKRIVSLPLWEGMTKEIVEQIVICLGQKVVSADE”: the protein production result is on record as “not failed”.

Take “MTAETSQTLDRGLRVLKLLADTDHGLTVTELSHKLGVNRTVVYRLLATLEQHALVRRDLGGRARVGLGVLGLGRQVHPLVREAAMPALRALAEDIGATAHLTLVDGAEALAVAVVEPTWTDYHVAYRAGFRHPLERGAAGKAILAARQPSQPTGGEAVDDPGYTLTHGELEAGACGAAAPLLGVTGVEGSVGVVMLADVVPERVGERVKHAAREVAEALR”: the protein production result is listed as “failed”.

Take “MNKDLKAIKWFITTQILKDPFNPAYATFKVTSRCNLRCTFCSPSYYSGELGEGSTERVKKIIDNLRDSSIVVLSFEGGEPTYRPDILDLLEYAHDGSFYIMLTTNGYRLKDEDFLTKLADKIDFLHYSIDEYHWNVKELENLCRFRKYGLKVNVQTVVTRYNLYKLEEKVRKVAECGYKILAMPAVDYPNSKVKLAPDPYEFYKVLYDLKRKYGSTLNNSWGFINAIIGKVPKRVVSYAITIYPNGDLPYPDDINGEIVGNVAEEPLNKILQSSKVKELQQKMLENQAKFEYLHLQTASFNNIRDLASYVSEMLRWRFTGRA”: the protein production result was “failed”.

For the sequence “MDETEHMPRYTLTLVDSTGAMEPLILMDDDLKSIAAKLEGRVSAKTRGRRPRGTGGISATPKGYRAYSTVTDPLTGKDHRVSGFGRTRSQAEARLKEKLAEFDRTHRVGYVRPPTVAEWMDHWLTDVCKPRLKPRTWGTYASVIANNIVPSIGAVRLDELKPAHFRRMERYVMDEQGKSSGTAGSAWRTLHKALEDAVLEGVIERNPAVKGTAPRVALKERAALTPEQAADLIAAETDDTWRLMWMLAFMTGMRQGERLGLTEDELRRDGDRLIILVEWQAQHLTKREVEGLPKGVECTPLGNGMYRTRPKTEKGRRAIPLPEALADQLLAYIERHGVNGDGLVFHDDRGLPLTGCVERRRWYRALDRVGLGHEYVPHSARHTTATILNRLGLDDVTRTAIMGHSRVSTTNEIYTHVELDRLVAATDGVERAIEG”, the protein production entry was “failed”.

For “DRTTYYSILGLTSNATSSEVHKSYLKLARLLHPDKTKSDKSEELFKAVVHAHSILTDEDQKLRYDRDLKIKGLHTYQPKK”, the protein production result is listed as “failed”.

“MIFVPIIGWLALFGYGVRLVNEFIEGRYEGPIKLDFMEDLKFGFMVFLKSLPFYIIYIIILFAAMYVSEGLGNIISLLLGFFVVPMLAVNFFRKQTVESFFEFSVLNVVRDNLGEYIITVLKQYALVIIFMVLSIVLVGIPGMLFTNSIFVANMYGRLVERKAEASL”: the protein production entry is “failed”.

In the case of “MTEGLAVELAGLRSFSIVMPAYNVVTQRGERIFRETLESIAASCRYLQQHFPYTPEGELILISDGSTDRTCDVAMAGWPNAVPLQLVGLPTNVGIAAARNIGVRLAKGEVIFFCDADDLYRPEHLFLALSVLNQPLPEPYAPAYFGAVRTGVYCRDRLHPYWHKSLEQTLVLNLAVRREVHEFIGGFPEDEVFRQFRYGAEDVAYAYWLHQFCHTARLEQRTVEYRRFPNSVFDRQLKKFQAAPGTVADDLDEGDRQQEAQIRQIMATRLQELQAKAAQGVALEHHHHHH”, the protein production entry was “failed”.

As for “MSSERLIYLPLGGAGEIGMNAYVYGYGKPDAERLIVVDMGVAFPDMDGSPGVDLILPDITWLQERRDRIEAVFVTHAHEDHVGAVAHTYEKLGAPVYARAFTANIARRKMAEHGHPEDAVHTVSPWPETVSAGPFKVSFLPISHSIPESSAMVIDTPEGRVIHSGDFKLDETPLVGEAFDPELWAEVSKEGVKALICDSTNVFSQHPGRSEASVGPEITNLVQSAEGMVVATTFASNVARVKTLADAGVRAGRSIVLMGRAMRRMIEAAAETGVLQDFPSVVSPEDARSIPRENLMLLVTGSQGERRAASAQLARGKYQGMEMKEGDLFPFSSKTIPGNEKGVIRIINAFSELGVDVVDDSSGLYHVSGHANRPDLERLSEIVNPQVVIPMHGEHRHLREHVKIAEQNGRTGVLAVNGMMVDLSGNQPKIAEYVETGRTYLDGTVQIGALDGVVRDRIRMALNGHVVVTLIVDEDDEPLGDPWCELKGLPETGRSKASLVDVLEADLGQWLGRADPKTMRDDDKLNEGLRRVVRQTSQDEIGKKPEVSVIVSRLS”, the protein production entry was “failed”.

Take “SPFIRANTAWLGHLEFAYDLVRFEKPEILVELGTHMGASFFSFCQGVKDGGLATKCFAVDTWTGDGHTGPYGEGVFHIVDKVVKTSYPNIGNLIKSTFDEAVDQFQDGTINLLHIDGYHTYEAVSHDYKTWLPKLADNGIVLFHDIEVKDRNFGVYKFWDEVKAKYPHFQFQHSYGLGVLFPKGCSDRFKEILKNKEEIQDMYK”: the protein production result is listed as “failed”.

Consider “MYADYPYYADHYGGDIPEREYPSAERRAEAYIRKLTYVRGNIFAVENTAVKDAVCAVADVYYSCKKKQEAGTVKSESNDGYSVSYAVEQADGQTMEELIRKKAYEAASTYLLPTGWLSRKVGCCHADECDDYNL”, for which the protein production result is recorded as “failed”.

“MSSQTILSVNNLSVSFTTNDGIVDAVKNVSFELQAGETLSIVGESGSGKSVSTNALMTLLPDNAIVHPDSSIMFEGESILDKTERQMQRIRGDRIGMIFQEPMTSLNPYMRVGIQVAEAMMCHRSVNQRKAKERVLELFDLVHLPNPQQAYDKYPHEFSGGQLQRIMIAMALINEPDILIADEPTTALDVTVQAEVLLLIKEIQAKMGMAILFITHDLGVVKHFADRVLVMCKGEVVEEGITEHLFSEPQHEYTKMLINSIPKGSKTPVDEKASELLNAEDIR”: the protein production result is reported as “not failed”.

“MTLSGGGSASDMSGQTVLTAEDVDIDVVGEGDDGLEEKDSDAGCDSPAGPPELRLDEADEVPPAAPHHGQPQPPHQQPLTLPKEAAGAGAGPGGDVGAPEADGCKGGVGGEEGGASGGGPGAGSGSAGGLAPSKPKNSLVKPPYSYIALITMAILQSPQKKLTLSGICEFISNRFPYYREKFPAWQNSIRHNLSLNDCFVKIPREPGNPGKGNYWTLDPQSEDMFDNGSFLRRRKRFKRHQQEHLREQTALMMQSFGAYSLAAAAGAAGPYGRPYGLHPAAAAGAYSHPAAAAAAAAAAALQYPYALPPVAPVLPPAVPLLPSGELGRKAAAFGSQLGPGLQLQLNSLGAAAAAAGTAGAAGTTASLIKSEPSARPSFSIENIIGGGPAAPGGSAVGAGVAGGTGGSGGGSTAQSFLRPPGTVQSAALMATHQPLSLSRTTATIAPILSVPLSGQFLQPAASAAAAAAAAAQAKWPAQ”: the protein production result is on record as “failed”.

Turning to “MIGITGVTGKLGSKVAQLISEQGISARHLARNPQRAALYDNAELVQVAFENSLEAVEALKGIDVLLMVSASESPNRLQQHFAFLDAAHEAGVKHIVYTSFYNAATEATFTLARDHAKTEKYIKERGFTYTFLRDNFYLDFFLDLCLNNGEIRGPAGNGKVSAVARQDVSEVATTILAKPDKWKNQLLNMTGPADLSMADIVHFVSEQKGEIIPYIDESIEEAYASRKAWPAQDWEYDAWVSTYTAIKEGKQAGVSSDIERVLGRPATSLEQLVKTIK”, the protein production result is “failed”.

In the case of “PIGKSADNMYSYLALVQDDPTVQVVNMAQKAYVEHYIQGDPDLAKLPVLSAAAPFKVGGRKNDPASFVEVEKGQLTFRNAADLYLYPNTLVVMKVSGKEVKEWLECSAGQFNQIDPASSKPQSLINWDGFRTYNFDVIDGVNYQIDVTQPARYDGECQMIHPQAERIKHLTFNGKPVDPQATFLVATNNYRAYGGKFAGTGESHIAFASPDENRSVLAAWIGAQSKKEGAIHPAADNNWRLAPIHSN”, the protein production entry is recorded as “failed”.

“MHEFSTVDGFAEINESLAEMIKYIANEPSVGLYYIQQHIRNAAPNVINLNNNVLEKSRETGLHTEDLEDSIAMVKSMKDCGSPIADEMIGDIKNSLAIMSSKQPRRGVILNSTSPWSRSSSITTRTRGSDNSQDNSESSNYFTSVFMTAKEKASNIKWPQLDFKEQKSEADPNVQSNELKEEEEEDSGKGEHIVETTKFEEFKAGKEASLKAWLGDMDGNVDVGGRVAERI”: the protein production result is “not failed”.

Regarding “MIYEGAVFRPPSEASSLILQVSLGCRHNQCTFCSMYKGKSFRIRSIEEIMDMIDAGSKAYPHMERIFLADGDALAVETDVLSNVLETLYQRFPRLKRVGIYGGPKDILEKSPAELARLKEQGLSIVYLGVESGSGLILNLIRKGVTPEEMINAGQKVVASGLKLSCTIILGLGGRERSPEHAVETGKVISAINPHYLGALTLMLAPDAPLTQKIKSGEFTPLNKWESLIELELMVQGLNLKDCLFRSNHASNYLPLKAHLPHDKATLLSTLKEVIEENREEVLRPEYWRGL”, the protein production result is “failed”.
